B1: ESRRA (parent)
chain: SLPLQDELAFAEDLVLDEEGARAA

Variants of: B1
Experiment: protein stability index of a GFP-peptide fusion (GPS, HEK-293T) (PSI 1-6); higher = more stable
Settings: c terminus: a fixed tail appended
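Note: lentivirally expressed fusions sorted by FACS into six bins by GFP to DsRed ratio, PSI derived from sequencing read proportions per bin multiplied by bin number.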

Variant | protein stability index
SLPLQDELAFAEDLVLDEELARAA | 3.04
SLPLQDELAFAEDLVLDEPGARAA | 4.02
TLPLQDELAFAEDLVLDEEGARAA | 3.01
SLKLQDELAFAEDLVLDEEGARAA | 5.08
SLPLMDELAFAEDLVLDEEGARAA | 2.48
SLPLQDELAFAEDLVLDEEGARAK | 2.96
SLPLQDEGAFAEDLVLDEEGARAA | 5.2
SLPLQDELAFAEDLVLDEEGALAA | 3.73
SLPLQDELAFAEDLVLDEEGVRAA | 3.14
RLPLQDELAFAEDLVLDEEGARAA | 3.28
SLMLQDELAFAEDLVLDEEGARAA | 4.18
SLPLQDELARAEDLVLDEEGARAA | 3.57
SLPLQDELAIAEDLVLDEEGARAA | 3.63
SLELQDELAFAEDLVLDEEGARAA | 4.97
SLPFQDELAFAEDLVLDEEGARAA | 4.96
SLPLQDELAFAEDLVLDEEGWRAA | 3.2
ELPLQDELAFAEDLVLDEEGARAA | 2.94
YLPLQDELAFAEDLVLDEEGARAA | 2.78
SLPLQDELAFAEDLVWDEEGARAA | 3.23
SLPLQDELAFAEDLVLDEEQARAA | 3.93
SLPLADELAFAEDLVLDEEGARAA | 3.25
SLPLQDELAFAEDLVLDEEGADAA | 4.19
SLPLQDELAFREDLVLDEEGARAA | 5.65
SLPLQDPLAFAEDLVLDEEGARAA | 5.58

Variant | protein stability index
SLPLQDELFFAEDLVLDEEGARAA | 4.56
SLPLQDELYFAEDLVLDEEGARAA | 4.19
SLPLQDELAFAEDLVLDEEGMRAA | 3.61
SLPLSDELAFAEDLVLDEEGARAA | 4.79
SLPLQDELAFAEDLVLDEIGARAA | 1.74
SLPLQDELAFAEDLVLTEEGARAA | 3.57
SLPLQDELAFASDLVLDEEGARAA | 5.26
SLSLQDELAFAEDLVLDEEGARAA | 5.28
STPLQDELAFAEDLVLDEEGARAA | 3.52
SLPLQDELAFAEDLVLDECGARAA | 2.79
SLPLQDELAFAEDLVLDEEGARGA | 4.15
SLILQDELAFAEDLVLDEEGARAA | 3.93
SLPLQDELAFAEDLVLDCEGARAA | 2.31
SLPLQDELAFAEDLGLDEEGARAA | 5.55
SLPLQDELAFAEDLVLDEEGARDA | 3.39
SLPLQDELAFAEDLVIDEEGARAA | 3.88
SLPLQDELAFAEDEVLDEEGARAA | 4.62
SLPLQDELAYAEDLVLDEEGARAA | 3.54
SLPLQDENAFAEDLVLDEEGARAA | 5.54
NLPLQDELAFAEDLVLDEEGARAA | 2.81
SLPLQDELTFAEDLVLDEEGARAA | 2.63
SLPNQDELAFAEDLVLDEEGARAA | 5.36
MLPLQDELAFAEDLVLDEEGARAA | 2.66
SLPLQDELACAEDLVLDEEGARAA | 3.36

Variant | protein stability index
SLPLQDESAFAEDLVLDEEGARAA | 5.63
SLPLQDELAFAEDLVSDEEGARAA | 4.91
SLPLQDELAFAEDLVTDEEGARAA | 4.72
SLPLQDELAFADDLVLDEEGARAA | 5.35
SLPLQDKLAFAEDLVLDEEGARAA | 4.84
SLPLQLELAFAEDLVLDEEGARAA | 3.26
SLPLQDELAFAEDLVLDVEGARAA | 3.6
SSPLQDELAFAEDLVLDEEGARAA | 4.21
SLPLQDELAFAEDLVLDYEGARAA | 2.99
SLPGQDELAFAEDLVLDEEGARAA | 5.68
SLPLQDELAFAERLVLDEEGARAA | 3.68
SLPQQDELAFAEDLVLDEEGARAA | 5.64
SLPLQDELAFAEDLVLDEEGAWAA | 2.53
SLPLQDELAFAEDLVLDEEGIRAA | 2.87
SLPLQDELAFAEDDVLDEEGARAA | 5.5
SLPLQDELAFCEDLVLDEEGARAA | 5.35
SLPLQDELAFACDLVLDEEGARAA | 5.04
SLPLLDELAFAEDLVLDEEGARAA | 3.02
SLPLQDELAFAEDLVLDEEGARHA | 2.95
SLPEQDELAFAEDLVLDEEGARAA | 5.59
SLWLQDELAFAEDLVLDEEGARAA | 4.32
SLPLQDELAFAEDLVNDEEGARAA | 4.59
SLPLQDELAFAEGLVLDEEGARAA | 2.44
SLRLQDELAFAEDLVLDEEGARAA | 4.46

Variant | protein stability index
SLPLQDEPAFAEDLVLDEEGARAA | 5.3
SLPLQDELAAAEDLVLDEEGARAA | 4.18
SLPLQDELPFAEDLVLDEEGARAA | 5.74
SLPLQDELAFAFDLVLDEEGARAA | 4.52
SLPLQDELAFAEDLVLDEKGARAA | 2.89
SLPLQDELAFAENLVLDEEGARAA | 2.79
SLPLQDELAFAEDLVLDEENARAA | 3.52
SLTLQDELAFAEDLVLDEEGARAA | 4.8
SEPLQDELAFAEDLVLDEEGARAA | 5.29
SLPLQDELAFAEDLVLDEEGPRAA | 3.14
SLPLQDELAFAEDLVLDEEVARAA | 4
SLPLQDELAFAEDLVLDEEGDRAA | 3.81
SLPLQDMLAFAEDLVLDEEGARAA | 3.26
SLPLQDELAFAEDLVLDMEGARAA | 2.42
SLPLQDELAFAEDLTLDEEGARAA | 5.28
SLPLQDELAFAMDLVLDEEGARAA | 4.88
SLPLPDELAFAEDLVLDEEGARAA | 4.94
SLPLQDELAFPEDLVLDEEGARAA | 5.53
SLPLQDELAFAEDLVLDEEGARAG | 3.22
SLPLQCELAFAEDLVLDEEGARAA | 2.42
SLPLQDELQFAEDLVLDEEGARAA | 3.61
SLPLQDELAFAEDLDLDEEGARAA | 4.89
SLPLQDELAFAEDLVLDEEGGRAA | 2.77
SLPLQDELAFAEDLVLDEEGAEAA | 4.36

Variant | protein stability index
SLPLQDELAFAEDLVLDEEGATAA | 4.45
SLPLQDELAFAPDLVLDEEGARAA | 5.03
SLPIQDELAFAEDLVLDEEGARAA | 4.43
SLPLQVELAFAEDLVLDEEGARAA | 2.5
SLPLQDELAFAEDLRLDEEGARAA | 5.42
SLPLQDELAFAEDLVDDEEGARAA | 5.66
SLPLQDELAFAEILVLDEEGARAA | 1.96
SLPLQDELAFAEDLVLDEEYARAA | 2.44
SLPLQDELAFAEDLVLDEEKARAA | 3.4
SLPLQDELKFAEDLVLDEEGARAA | 2.63
SLPLQDELAFAEDLVLDEECARAA | 2.6
SLPLQDELAFAEDLVLDEEGTRAA | 3.75
SLPLQDELAKAEDLVLDEEGARAA | 2.83
SLPLQDELAFAEDLVLDEFGARAA | 2.25
SLPLQDELAFAIDLVLDEEGARAA | 3.8
KLPLQDELAFAEDLVLDEEGARAA | 3.09
GLPLQDELAFAEDLVLDEEGARAA | 2.81
SLPLQDELAFAEDLVLDEEGARAF | 2.14
SLPLQDELSFAEDLVLDEEGARAA | 3.42
SLPLQDELAFAEDLVLDEEGARAQ | 3.05
SLHLQDELAFAEDLVLDEEGARAA | 4.45
DLPLQDELAFAEDLVLDEEGARAA | 3.07
SLPLQDELAFAEVLVLDEEGARAA | 1.85
SLPLQDELAFAEELVLDEEGARAA | 2.92

Variant | protein stability index
SLVLQDELAFAEDLVLDEEGARAA | 4.91
SLPLQDELAVAEDLVLDEEGARAA | 3.69
SLPLQHELAFAEDLVLDEEGARAA | 2.45
SLPYQDELAFAEDLVLDEEGARAA | 5.26
SLPLQDELANAEDLVLDEEGARAA | 4.03
SLPLQDTLAFAEDLVLDEEGARAA | 4.4
SLPLQDELAFAEDLVLDEAGARAA | 1.86
SLDLQDELAFAEDLVLDEEGARAA | 4.14
SLPLQDELAFAEDLVRDEEGARAA | 3.55
SLPLQDELAFSEDLVLDEEGARAA | 4.13
SLPLQDELAFEEDLVLDEEGARAA | 5.54
SLPLQDELAFAEDLVLDEEGRRAA | 3.41
SLPLQDELAFAEMLVLDEEGARAA | 3.83
SLALQDELAFAEDLVLDEEGARAA | 4.97
SLPLQDELAFAEDLKLDEEGARAA | 5.57
SLPLQDELAFAEDLVFDEEGARAA | 3.7
SLYLQDELAFAEDLVLDEEGARAA | 4.61
SLPLQDELAFAEDLVLFEEGARAA | 2.93
SLPLQDELAFAEDLVVDEEGARAA | 4.15
SLPLQDELAFAEDLVLDKEGARAA | 4.48
SLPLQDELAFAEDLVLDNEGARAA | 3.68
LLPLQDELAFAEDLVLDEEGARAA | 2.26
SLPLQDELAFAEDLVLDEEGAHAA | 3.65
SLPLQDEMAFAEDLVLDEEGARAA | 2.99

Variant | protein stability index
SLPLQDELAFAEDLVKDEEGARAA | 3.24
SLPLEDELAFAEDLVLDEEGARAA | 5.48
SLPLQDELAMAEDLVLDEEGARAA | 2.52
CLPLQDELAFAEDLVLDEEGARAA | 2.93
SLPLQDELAFAEDLVLDEEGARKA | 2.65
SLPLQDELAFAWDLVLDEEGARAA | 5.05
SLPLQDEVAFAEDLVLDEEGARAA | 5.84
SLPLQDELAFAEDLVLDEEGANAA | 3.36
SLPLQDEFAFAEDLVLDEEGARAA | 5.13
SLPLQDELAFALDLVLDEEGARAA | 4.42
SLPLQDELAFAEDLVLDEEMARAA | 2.51
SLPLQDELAFAEDLVLDEEGAFAA | 3.24
SLPLQDELAFAEDLVLDEEGARNA | 3.21
SLPDQDELAFAEDLVLDEEGARAA | 4.97
SLPLQDELAFAEDLVLDPEGARAA | 2.56
SLPLQGELAFAEDLVLDEEGARAA | 3.37
SLPLQDELAFAEDLVLDEEGARAS | 2.82
SLPLQDELAFAEDLVLDEEFARAA | 3.47
SLPLQDELAFAEDLVLDEEGAREA | 3.66
SLPLQDELAFAEDLVLDWEGARAA | 2.49
SLPLQDELAFAKDLVLDEEGARAA | 5.28
SLPLQDELAFDEDLVLDEEGARAA | 5.57
SLPLQDELAFANDLVLDEEGARAA | 5.53
SLPLWDELAFAEDLVLDEEGARAA | 2.29

Variant | protein stability index
SLPLQDELAFAEDLVLVEEGARAA | 3.19
SLPLQDELAFAEDLVLDEEGAQAA | 3.45
SLPLQDELAFAEDPVLDEEGARAA | 5.8
SLPLQDELHFAEDLVLDEEGARAA | 3.67
SLPLQDELAFAGDLVLDEEGARAA | 4.91
SGPLQDELAFAEDLVLDEEGARAA | 4.81
SLPLFDELAFAEDLVLDEEGARAA | 3.85
SLPLQWELAFAEDLVLDEEGARAA | 2.78
SLPLQDELAFAADLVLDEEGARAA | 5
SLPLQDELAFAEDGVLDEEGARAA | 5.57
SLPLQDELAFAEDLVLDEEGCRAA | 3.01
SLPLQDQLAFAEDLVLDEEGARAA | 3.56
SLPLQDELAFAEDLVLGEEGARAA | 2.15
SLPLQDELAFAEDLVADEEGARAA | 3.83
SLPLQFELAFAEDLVLDEEGARAA | 2.73
SLLLQDELAFAEDLVLDEEGARAA | 4.84
SLPLQYELAFAEDLVLDEEGARAA | 2.02
SLPLQTELAFAEDLVLDEEGARAA | 2.89
SLPLQDELAFAEDLVLDEEGARCA | 2.98
SLPLQDELNFAEDLVLDEEGARAA | 3.88
